Reference: article PMC7987177

Experiments:
[1] = target: wild-type Aplysia Kv1 voltage-gated potassium channel subunit, full-length (aKv1/FL) (Aplysia)
[2] = target: wild-type Aplysia Kv1 voltage-gated potassium channel subunit, full-length (aKv1/FL) (Aplysia); remark: listed apart in the source

- reduction in current density at +80 mV in cerebellar granule cells electroporated with both constructs, after 1.5 hours of blue light [1]: 80%
- suppression of the fast inactivating aKv1/FL whole-cell current in co-transfected CHO cells after 1.5 hours of blue light [2]: 70%
Substance: Opto-aKv1/SL/V400D (dominant-negative, short-length Opto-aKv1 subunit: aKv1 N-terminus, VfAu1 LOV domain, aKv1 from the T1 domain on, pore mutation V400D)
